# Reference: patent US20140322736
# Columns and labels:
# [1] = system: human mutant recombinant prethrombin-2
# [2] = system: mouse mutant recombinant prethrombin-2
Substance,protease activity (fluorescence of the cleaved fluorogenic substrate (p-tosyl-Gly-Pro-Arg)2-rhodamine 110 over time) [1],protease activity (fluorescence of the cleaved fluorogenic substrate (p-tosyl-Gly-Pro-Arg)2-rhodamine 110 over time) [2],cleavage of the proenzyme [2]
wild type human α-thrombin (Sigma Aldrich),"in the presence of WT human α-thrombin, the protease activity increased considerably with time (FIG. 4, curves a, b), compared to the samples where only WT α-thrombin was added","in the presence of WT human α-thrombin, the protease activity increased considerably with time (FIG. 4, curves a, b), compared to the samples where only WT α-thrombin was added",–
"α-thrombin immobilized on agarose (Thrombin CleanCleave Kit, Sigma-Aldrich)",–,–,Mouse mutant prethrombin-2 was cleaved using Thrombin CleanCleave™ Kit
